Blank lines part the entries; values can stand above or below the binder they belong to.
Tests used:
[1] = target: T1, scCD94/NKG2A-mFc, Fc-fusion protein of murine IgG1 fused at the C-terminus with a single-chain construct of … (mouse; human, UniProt Q13241 32-179); assay: SPR Biacore T100, sc-NKG2A-CD94-mFc immobilized, antibody 1.25-10 nM
[2] = target: T1, scCD94/NKG2A-mFc, Fc-fusion protein of …; assay: SPR Biacore T100, sc-NKG2A-CD94-mFc immobilized, binding level (RU) divided by that of chimZ199
[3] = target: T2, human CD94/NKG2A receptor on cells (Ba/F3 cells over-expressing CD94/NKG2A; NKL cells) (human, UniProt Q13241 1-179); assay: flow cytometry on Ba/F3-CD94/NKG2A cells
T2 construct: whole, on cells; also called Ba/F3-CD94/NKG2A
T2 sequence (chain, as listed by the source, chain 1 of 2): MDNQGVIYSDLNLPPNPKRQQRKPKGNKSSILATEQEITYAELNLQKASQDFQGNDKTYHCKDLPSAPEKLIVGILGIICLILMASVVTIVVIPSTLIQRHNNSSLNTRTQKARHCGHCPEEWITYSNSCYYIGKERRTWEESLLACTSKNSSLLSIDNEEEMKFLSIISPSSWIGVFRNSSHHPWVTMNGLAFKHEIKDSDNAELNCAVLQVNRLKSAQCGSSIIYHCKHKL
T2 sequence (Q13241 whole entry, chain 2 of 2): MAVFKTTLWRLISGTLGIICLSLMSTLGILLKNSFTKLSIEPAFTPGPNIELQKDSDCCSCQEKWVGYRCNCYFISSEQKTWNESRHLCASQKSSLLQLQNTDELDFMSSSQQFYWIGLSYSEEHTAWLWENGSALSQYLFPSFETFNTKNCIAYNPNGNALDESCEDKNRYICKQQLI

[4] = target: T1, scCD94/NKG2A-mFc, Fc-fusion protein of …; assay: SPR Biacore T100, sc-NKG2A-CD94-mFc immobilized

T1 sequence (Q13241 other isoform, or with tags, fused parts or gaps): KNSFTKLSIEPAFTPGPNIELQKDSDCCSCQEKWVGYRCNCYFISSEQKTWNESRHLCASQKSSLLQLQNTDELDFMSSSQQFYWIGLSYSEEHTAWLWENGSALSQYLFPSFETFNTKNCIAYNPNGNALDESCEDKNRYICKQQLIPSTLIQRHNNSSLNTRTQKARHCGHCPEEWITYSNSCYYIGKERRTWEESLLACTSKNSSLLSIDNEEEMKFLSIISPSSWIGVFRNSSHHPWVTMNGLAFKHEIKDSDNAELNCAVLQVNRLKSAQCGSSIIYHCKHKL

- Kd [1]: 0.0243 nM
- koff [1]: 4.17e-05 s⁻¹
- kon [1]: 1.72e+06 M⁻¹ s⁻¹
B1: chimeric Z199 with a human IgG4(S241P) portion (antibody, V domains shown)
VH: EVQLVESGGGLVKPGGSLKLSCAASGFTFSSYAMSWVRQSPEKRLEWVAEISSGGSYTYYPDTVTGRFTISRDNAKNTLYLEISSLRSEDTAMYYCTRHGDYPRFFDVWGAGTTVTVSS
VL: QIVLTQSPALMSASPGEKVTMTCSASSSVSYIYWYQQKPRSSPKPWIYLTSNLASGVPARFSGSGSGTSYSLTISSMEAEDAATYYCQQWSGNPYTFGGGTKLEIKR
notes: also called chimZ199; ChimZ199

- relative binding against chimZ199 [2]: ~40%
B2: chimZ199 light-chain alanine mutant L50A (antibody, human IgG4, name in Kabat numbering, V domains shown)
VH: EVQLVESGGGLVKPGGSLKLSCAASGFTFSSYAMSWVRQSPEKRLEWVAEISSGGSYTYYPDTVTGRFTISRDNAKNTLYLEISSLRSEDTAMYYCTRHGDYPRFFDVWGAGTTVTVSS
VL: QIVLTQSPALMSASPGEKVTMTCSASSSVSYIYWYQQKPRSSPKPWIYATSNLASGVPARFSGSGSGTSYSLTISSMEAEDAATYYCQQWSGNPYTFGGGTKLEIKR
notes: Ala-scan mutant made on chimZ199 (human IgG4 constant domains); also called LC: L50A

- relative binding against chimZ199 [2]: ~40%
B3: chimZ199 heavy-chain alanine mutant Y56A (antibody, human IgG4, name in Kabat numbering, V domains shown)
VH: EVQLVESGGGLVKPGGSLKLSCAASGFTFSSYAMSWVRQSPEKRLEWVAEISSGGSATYYPDTVTGRFTISRDNAKNTLYLEISSLRSEDTAMYYCTRHGDYPRFFDVWGAGTTVTVSS
VL: QIVLTQSPALMSASPGEKVTMTCSASSSVSYIYWYQQKPRSSPKPWIYLTSNLASGVPARFSGSGSGTSYSLTISSMEAEDAATYYCQQWSGNPYTFGGGTKLEIKR
notes: Ala-scan mutant made on chimZ199 (human IgG4 constant domains); Kabat numbering; also called HC: Y56A

- binding result [3]: binds
B4: murine anti-NKG2A antibody Z199 (antibody, V domains shown)
VH: EVQLVESGGGLVKPGGSLKLSCAASGFTFSSYAMSWVRQSPEKRLEWVAEISSGGSYTYYPDTVTGRFTISRDNAKNTLYLEISSLRSEDTAMYYCTRHGDYPRFFDVWGAGTTVTVSS
VL: QIVLTQSPALMSASPGEKVTMTCSASSSVSYIYWYQQKPRSSPKPWIYLTSNLASGVPARFSGSGSGTSYSLTISSMEAEDAATYYCQQWSGNPYTFGGGTKLEIKR
notes: Mouse monoclonal antibody (Beckman Coulter IM2750) and its recombinant form recZ199 made in HEK293 cells; also called recZ199; Z199 (rec)

- relative binding against chimZ199 [2]: ~40%
B5: chimZ199 light-chain alanine mutant P95A (antibody, human IgG4, name in Kabat numbering, V domains shown)
VH: EVQLVESGGGLVKPGGSLKLSCAASGFTFSSYAMSWVRQSPEKRLEWVAEISSGGSYTYYPDTVTGRFTISRDNAKNTLYLEISSLRSEDTAMYYCTRHGDYPRFFDVWGAGTTVTVSS
VL: QIVLTQSPALMSASPGEKVTMTCSASSSVSYIYWYQQKPRSSPKPWIYLTSNLASGVPARFSGSGSGTSYSLTISSMEAEDAATYYCQQWSGNAYTFGGGTKLEIKR
notes: Ala-scan mutant made on chimZ199 (human IgG4 constant domains); also called LC: P95A

- relative binding against chimZ199 [2]: ~40%
B6: chimZ199 heavy-chain alanine mutant P99A (antibody, human IgG4, name in Kabat numbering, V domains shown)
VH: EVQLVESGGGLVKPGGSLKLSCAASGFTFSSYAMSWVRQSPEKRLEWVAEISSGGSYTYYPDTVTGRFTISRDNAKNTLYLEISSLRSEDTAMYYCTRHGDYARFFDVWGAGTTVTVSS
VL: QIVLTQSPALMSASPGEKVTMTCSASSSVSYIYWYQQKPRSSPKPWIYLTSNLASGVPARFSGSGSGTSYSLTISSMEAEDAATYYCQQWSGNPYTFGGGTKLEIKR
notes: Ala-scan mutant made on chimZ199 (human IgG4 constant domains); Kabat numbering; also called HC: P99A

- relative binding against chimZ199 [2]: ~40%
B7: chimZ199 light-chain alanine mutant Y32A (antibody, human IgG4, name in Kabat numbering, V domains shown)
VH: EVQLVESGGGLVKPGGSLKLSCAASGFTFSSYAMSWVRQSPEKRLEWVAEISSGGSYTYYPDTVTGRFTISRDNAKNTLYLEISSLRSEDTAMYYCTRHGDYPRFFDVWGAGTTVTVSS
VL: QIVLTQSPALMSASPGEKVTMTCSASSSVSAIYWYQQKPRSSPKPWIYLTSNLASGVPARFSGSGSGTSYSLTISSMEAEDAATYYCQQWSGNPYTFGGGTKLEIKR
notes: Ala-scan mutant made on chimZ199 (human IgG4 constant domains); also called LC: Y32A

- relative binding against chimZ199 [2]: ~40%
B8: chimZ199 heavy-chain alanine mutant Y98A (antibody, human IgG4, name in Kabat numbering, V domains shown)
VH: EVQLVESGGGLVKPGGSLKLSCAASGFTFSSYAMSWVRQSPEKRLEWVAEISSGGSYTYYPDTVTGRFTISRDNAKNTLYLEISSLRSEDTAMYYCTRHGDAPRFFDVWGAGTTVTVSS
VL: QIVLTQSPALMSASPGEKVTMTCSASSSVSYIYWYQQKPRSSPKPWIYLTSNLASGVPARFSGSGSGTSYSLTISSMEAEDAATYYCQQWSGNPYTFGGGTKLEIKR
notes: Ala-scan mutant made on chimZ199 (human IgG4 constant domains); Kabat numbering; also called HC: Y98A

- Kd [1]: 0.072 nM
- koff [1]: 0.000122 s⁻¹
- kon [1]: 1.7e+06 M⁻¹ s⁻¹
- fold difference of affinity against chimeric Z199 [4]: 2.7 fold
B9: HumZ199 (LC: L46P) (antibody, name in Kabat numbering, V domains shown)
VH: EVQLVESGGGLVKPGGSLRLSCAASGFTFSSYAMSWVRQAPGKGLEWVSEISSGGSYTYYADSVKGRFTISRDNAKNSLYLQMNSLRAEDTAVYYCARHGDYPRFFDVWGQGTTVTVSS
VL: EIVLTQSPATLSLSPGERATLSCSASSSVSSYIYWYQQKPGQAPRPLIYLTSNLASGIPARFSGSGSGTDFTLTISSLEPEDFAVYYCQQWSGNPYTFGQGTKLEIK
notes: also called huZ199(LC:L46P); humZ199 with single back mutation L46P in the light chain

Source: patent US20110052606A1 (Novo Nordisk, published 2011)
